Publication PMC6078178 (Nature, 2017)

B4: Tfb3 (natural protein, S. cerevisiae, UniProt Q03290 1-321, looked up)
chain: MLMDEYEENKDMCPICKTDRYLSPDVKFLVNPECYHRICESCVDRIFSLGPAQCPYKGCDKILRKNKFKTQIFDDVEVEKEVDIRKRVFNVFNKTIDDFNGDLVEYNKYLEEVEDIIYKLDHGIDVAKTEEKLRTYEELNKQLIMNNLERSRTEIESFEQRQKFEKEMKLKKRLLERQIEEEERMNKEWTKKEIVNRLSTTTQDINETIEGVKNTVKLKKSSARRKLEELNRVLKNNPYFNSNVNVQNSRLKDAVPFTPFNGDREAHPRFTLKGSVYNDPFIKDLEHRKEFIASGFNTNYAYERVLTEAFMGLGCVISEEL
B5: Rpb4 (Pol II stalk subunit) (natural protein, S. cerevisiae)
chain: MNVSTSTFQTRRRRLKKVEEEENAATLQLGQEFQLKQINHQGEEEELIALNLSEARLVIKEALVERRRAFKRSQKKHKKKHLKHENANDETTAVEDEDDDLDEDDVNADDDDFMHSETREKELESIDVLLEQTTGGNNKDLKNTMQYLTNFSRFRDQETVGAVIQLLKSTGLHPFEVAQLGSLACDTADEAKTLIPSLNNKISDDELERILKELSNLETLY

Experiments:
Ssl2 = target: T1, Ssl2 (S. cerevisiae, UniProt Q00578 1-843); test: cryo-EM structure
T1 sequence (looked up): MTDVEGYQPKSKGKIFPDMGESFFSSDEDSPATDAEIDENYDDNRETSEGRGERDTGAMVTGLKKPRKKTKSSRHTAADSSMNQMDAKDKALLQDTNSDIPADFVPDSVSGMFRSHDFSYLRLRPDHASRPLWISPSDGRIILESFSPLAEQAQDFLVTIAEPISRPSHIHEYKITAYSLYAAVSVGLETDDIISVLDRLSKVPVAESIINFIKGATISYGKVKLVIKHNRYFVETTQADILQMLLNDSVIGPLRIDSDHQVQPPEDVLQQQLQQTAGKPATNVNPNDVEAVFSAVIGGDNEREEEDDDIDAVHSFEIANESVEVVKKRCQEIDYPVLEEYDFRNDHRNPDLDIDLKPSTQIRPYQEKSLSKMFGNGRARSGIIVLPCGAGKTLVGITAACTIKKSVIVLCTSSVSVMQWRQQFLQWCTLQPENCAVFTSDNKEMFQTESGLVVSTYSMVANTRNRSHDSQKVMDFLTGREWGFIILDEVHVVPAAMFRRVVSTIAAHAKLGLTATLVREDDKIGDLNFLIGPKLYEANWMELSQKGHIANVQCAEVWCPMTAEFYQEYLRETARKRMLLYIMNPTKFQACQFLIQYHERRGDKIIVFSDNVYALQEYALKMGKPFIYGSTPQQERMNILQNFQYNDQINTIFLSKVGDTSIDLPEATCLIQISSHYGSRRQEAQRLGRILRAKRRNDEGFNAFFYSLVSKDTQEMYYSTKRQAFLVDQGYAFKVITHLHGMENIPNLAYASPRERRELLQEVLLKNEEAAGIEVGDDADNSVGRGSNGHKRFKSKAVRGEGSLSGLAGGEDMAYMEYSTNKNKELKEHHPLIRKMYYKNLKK

Tfb1 = target: T2, Tfb1 (S. cerevisiae, UniProt P32776 1-642); test: cryo-EM structure
T2 sequence (looked up): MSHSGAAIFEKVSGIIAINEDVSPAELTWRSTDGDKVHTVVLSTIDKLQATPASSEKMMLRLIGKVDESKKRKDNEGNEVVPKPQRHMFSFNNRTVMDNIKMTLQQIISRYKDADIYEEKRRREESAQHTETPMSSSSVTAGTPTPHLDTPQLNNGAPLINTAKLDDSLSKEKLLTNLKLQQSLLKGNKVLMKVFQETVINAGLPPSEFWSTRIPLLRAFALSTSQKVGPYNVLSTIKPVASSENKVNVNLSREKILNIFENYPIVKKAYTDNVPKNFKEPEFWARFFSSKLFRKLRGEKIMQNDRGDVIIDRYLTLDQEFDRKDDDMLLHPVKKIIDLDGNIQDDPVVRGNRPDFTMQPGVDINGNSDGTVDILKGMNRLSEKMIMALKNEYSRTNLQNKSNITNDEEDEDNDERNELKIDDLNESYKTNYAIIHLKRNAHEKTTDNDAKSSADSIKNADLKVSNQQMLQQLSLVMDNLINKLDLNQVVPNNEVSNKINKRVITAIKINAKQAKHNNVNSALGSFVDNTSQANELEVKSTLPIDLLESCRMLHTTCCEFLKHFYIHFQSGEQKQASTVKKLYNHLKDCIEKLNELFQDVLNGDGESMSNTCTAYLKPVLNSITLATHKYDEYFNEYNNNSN

Tfb2 = target: T3, Tfb2 (S. cerevisiae, UniProt Q02939 1-513); test: cross-linking
T3 sequence (looked up): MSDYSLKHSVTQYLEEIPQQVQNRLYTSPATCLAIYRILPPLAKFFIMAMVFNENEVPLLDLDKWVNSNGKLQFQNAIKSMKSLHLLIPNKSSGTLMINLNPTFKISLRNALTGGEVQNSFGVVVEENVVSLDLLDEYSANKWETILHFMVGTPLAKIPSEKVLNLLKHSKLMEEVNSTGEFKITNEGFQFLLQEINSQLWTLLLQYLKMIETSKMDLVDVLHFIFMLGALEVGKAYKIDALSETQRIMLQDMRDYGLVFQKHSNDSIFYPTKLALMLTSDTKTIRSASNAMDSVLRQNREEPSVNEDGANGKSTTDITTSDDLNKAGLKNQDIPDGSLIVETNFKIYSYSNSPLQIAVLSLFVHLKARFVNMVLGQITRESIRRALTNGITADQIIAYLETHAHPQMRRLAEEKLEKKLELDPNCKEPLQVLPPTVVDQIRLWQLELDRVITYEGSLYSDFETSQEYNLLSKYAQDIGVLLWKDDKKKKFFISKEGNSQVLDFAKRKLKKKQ

Tfb3 = target: B4; test: cryo-EM structure
[1] = target: B5; test: cryo-EM structure
TFIIE (Tfa1 and Tfa2) = target: T4, TFIIE (Tfa1 and Tfa2) (S. cerevisiae, UniProt P36100 1-482; P36145 1-328); test: cryo-EM structure
T4 sequence (looked up) 1: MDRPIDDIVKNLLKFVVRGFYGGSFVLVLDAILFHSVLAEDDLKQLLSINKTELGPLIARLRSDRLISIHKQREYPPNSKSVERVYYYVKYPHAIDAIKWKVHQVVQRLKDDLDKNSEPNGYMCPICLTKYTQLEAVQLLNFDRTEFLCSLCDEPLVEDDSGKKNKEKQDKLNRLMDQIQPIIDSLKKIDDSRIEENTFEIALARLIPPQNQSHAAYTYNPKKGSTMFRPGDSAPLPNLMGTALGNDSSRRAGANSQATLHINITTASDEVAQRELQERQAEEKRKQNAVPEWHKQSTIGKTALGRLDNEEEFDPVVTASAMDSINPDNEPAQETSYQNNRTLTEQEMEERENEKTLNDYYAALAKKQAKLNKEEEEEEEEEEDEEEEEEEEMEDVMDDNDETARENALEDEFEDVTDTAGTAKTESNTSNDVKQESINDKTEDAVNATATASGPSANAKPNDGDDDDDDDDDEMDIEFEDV
T4 sequence (looked up) 2: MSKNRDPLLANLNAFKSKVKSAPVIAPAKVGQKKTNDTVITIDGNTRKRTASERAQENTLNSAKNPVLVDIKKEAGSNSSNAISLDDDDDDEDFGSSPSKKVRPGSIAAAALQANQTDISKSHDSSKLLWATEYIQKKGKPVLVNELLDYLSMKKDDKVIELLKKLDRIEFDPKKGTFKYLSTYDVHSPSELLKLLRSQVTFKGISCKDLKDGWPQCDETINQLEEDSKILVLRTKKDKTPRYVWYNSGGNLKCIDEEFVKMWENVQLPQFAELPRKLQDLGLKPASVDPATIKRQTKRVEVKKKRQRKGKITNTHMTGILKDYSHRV

Med8 = target: T5, Med8 (S. cerevisiae, UniProt P38304 1-223); test: cryo-EM structure
T5 sequence (looked up): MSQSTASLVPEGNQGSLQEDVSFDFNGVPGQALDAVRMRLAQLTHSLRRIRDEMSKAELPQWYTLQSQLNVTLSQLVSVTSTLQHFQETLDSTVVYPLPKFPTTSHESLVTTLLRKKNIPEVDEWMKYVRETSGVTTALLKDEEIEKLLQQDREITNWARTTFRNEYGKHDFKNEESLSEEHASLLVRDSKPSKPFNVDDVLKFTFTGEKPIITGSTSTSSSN

B1: Tfa1 (TFIIE subunit) (natural protein, S. cerevisiae, UniProt P36100 1-482, looked up)
chain: MDRPIDDIVKNLLKFVVRGFYGGSFVLVLDAILFHSVLAEDDLKQLLSINKTELGPLIARLRSDRLISIHKQREYPPNSKSVERVYYYVKYPHAIDAIKWKVHQVVQRLKDDLDKNSEPNGYMCPICLTKYTQLEAVQLLNFDRTEFLCSLCDEPLVEDDSGKKNKEKQDKLNRLMDQIQPIIDSLKKIDDSRIEENTFEIALARLIPPQNQSHAAYTYNPKKGSTMFRPGDSAPLPNLMGTALGNDSSRRAGANSQATLHINITTASDEVAQRELQERQAEEKRKQNAVPEWHKQSTIGKTALGRLDNEEEFDPVVTASAMDSINPDNEPAQETSYQNNRTLTEQEMEERENEKTLNDYYAALAKKQAKLNKEEEEEEEEEEDEEEEEEEEMEDVMDDNDETARENALEDEFEDVTDTAGTAKTESNTSNDVKQESINDKTEDAVNATATASGPSANAKPNDGDDDDDDDDDEMDIEFEDV
B1: binds (Ssl2); binds (Tfb1); binds (Tfb2).

B2: Rpb7 (Pol II stalk subunit) (natural protein, S. cerevisiae, UniProt P34087 1-171, looked up)
chain: MFFIKDLSLNITLHPSFFGPRMKQYLKTKLLEEVEGSCTGKFGYILCVLDYDNIDIQRGRILPTDGSAEFNVKYRAVVFKPFKGEVVDGTVVSCSQHGFEVQVGPMKVFVTKHLMPQDLTFNAGSNPPSYQSSEDVITIKSRIRVKIEGCISQVSSIHAIGSIKEDYLGAI
B2: binds (Tfb3).

B3: Med22 (natural protein, S. cerevisiae, UniProt P32570 1-121, looked up)
chain: MSNQALYEKLEQTRTILSVKLAELINMTTIADRNDDDEGSFAQENSELAVATTSVMMVNNQTMQLIKNVQDLLILTRSIKEKWLLNQIPVTEHSKVTRFDEKQIEELLDNCIETFVAEKTT
B3: binds [1].

B4: binds (TFIIE (Tfa1 and Tfa2)).

B5: binds (Med8).
